The values below come from patent US20220218614A1, “IONIZABLE CATIONIC LIPIDS AND LIPID NANOPARTICLES, AND METHODS OF SYNTHESIS AND USE THEREOF” (Tidal Therapeutics, Inc., priority 2020, published 2022).

First the molecules themselves.
B1: Lorvotuzumab: anti-CD56 Lorvotuzumab Fab bDS, SEQ ID NO: 32 and 33 (antibody)
heavy: QVQLVESGGGVVQPGRSLRLSCAASGFTFSSFGMHWVRQAPGKGLEWVAYISSGSFTIYYADSVKGRFTISRDNSKNTLYLQMNSLRAEDTAVYYCARMRKGYAMDYWGQGTLVTVSSASTKGPSVFPLAPSSKSTSGGTAALGCLVKDYFPEPVTVSWNSGALTSGVHTCPAVLQSSGLYSLSSVVTVPSSSLGTQTYICNVNHKPSNTKVDKKVEPKSSDKTHTCHHHHHH
light: DVVMTQSPLSLPVTLGQPASISCRSSQIIIHSDGNTYLEWFQQRPGQSPRRLIYKVSNRFSGVPDRFSGSGSGTDFTLKISRVEAEDVGVYYCFQGSHVPHTFGQGTKVEIKRTVAAPSVFIFPPSDEQLKSGTASVVCLLNNFYPREAKVQWKVDNALQSGNSQESVTEQDSKDSTYSLCSTLTLSKADYEKHKVYACEVTHQGLSSPVTKSFNRGES
B2: A3: anti-CD56 A3 Fab bDS, SEQ ID NO: 30 and 31 (antibody)
heavy: EVQLVQSGAEVKKPGSSVKVSCKASGGTFTGYYMHWVRQAPGQGLEWMGWINPNSGGTNYAQKFQGRVTMTRDTSISTAYMELSRLRSDDTAVYYCARDLSSGYSGYFDYWGQGTLVTVSSASTKGPSVFPLAPSSKSTSGGTAALGCLVKDYFPEPVTVSWNSGALTSGVHTCPAVLQSSGLYSLSSVVTVPSSSLGTQTYICNVNHKPSNTKVDKKVEPKSSDKTHTCGGHHHHHH
light: DVVMTQSPLSLPVTPGEPASISCRSSQSLLHSNGYNFLDWYLQKPGQSPQLLIYLGSNRASGVPDRFSGSGSGTDFTLKISRVEADDVGVYYCMQSLQTPWTFGHGTKVEIKRTVAAPSVFIFPPSDEQLKSGTASVVCLLNNFYPREAKVQWKVDNALQSGNSQESVTEQDSKDSTYSLCSTLTLSKADYEKHKVYACEVTHQGLSSPVTKSFNRGES
B3: V1: anti-CD7 Nanobody, SEQ ID NO: 80 (protein)
VHH: DVQLQESGGGLVQAGGSLRLSCAVSGYPYSSYCMGWFRQAPGKEREGVAAIDSDGRTRYADSVKGRFTISQDNAKNTLYLQMNRMKPEDTAMYYCAARFGPMGCVDLSTLSFGHWGQGTQVTVSITGGGCHHHHHHHH
B4: OKT4: anti-CD4 humanized OKT4 bDS Fab, SEQ ID NO: 74 and 75 (antibody)
heavy: EVQLVESGGGLVQPGGSLRLSCAASGFTFSNYAMSWVRQAPGKRLEWVSAISDHSTNTYYPDSVKGRFTISRDNAKNTLYLQMNSLRAEDTAVYYCARKYGGDYDPFDYWGQGTLVTVSSASTKGPSVFPLAPSSKSTSGGTAALGCLVKDYFPEPVTVSWNSGALTSGVHTCPAVLQSSGLYSLSSVVTVPSSSLGTQTYICNVNHKPSNTKVDKKVEPKSSDKTHTCHHHHHH
light: DIQMTQSPSSLSASVGDRVTITCQASQDINNYIAWYQHKPGKGPKLLIHYTSTLQPGIPSRFSGSGSGRDYTLTISSLQPEDFATYYCLQYDNLLFTFGGGTKVEIKRTVAAPSVFIFPPSDEQLKSGTASVVCLLNNFYPREAKVQWKVDNALQSGNSQESVTEQDSKDSTYSLCSTLTLSKADYEKHKVYACEVTHQGLSSPVTKSFNRGES
B5: TRX2 ScFv: anti-CD8 TRX2 ScFv, SEQ ID NO: 98 (protein)
scFv: QVQLVESGGGVVQPGRSLRLSCAASGFTFSDFGMNWVRQAPGKGLEWVALIYYDGSNKFYADSVKGRFTISRDNSKNTLYLQMNSLRAEDTAVYYCAKPHYDGYYHFFDSWGQGTLVTVSSGGGGSGGGGSGGGGSGGGGSDIQMTQSPSSLSASVGDRVTITCKGSQDINNYLAWYQQKPGKAPKLLIYNTDILHTGVPSRFSGSGSGTDFTFTISSLQPEDIATYYCYQYNNGYTFGQGTKVEIKGGGSGGCGGHHHHHH
B6: 12D2: anti-CD3 12D2 bDS Fab, SEQ ID NO: 84 and 85 (antibody)
heavy: EVKLVESGGGLVQPGRSLRLSCAASGFNFYAYWMGWVRQAPGKGLEWIGEIKKDGTTINYTPSLKDRFTISRDNAQNTLYLQMTKLGSEDTALYYCAREERDGYFDYWGQGVMVTVSSASTKGPSVFPLAPSSKSTSGGTAALGCLVKDYFPEPVTVSWNSGALTSGVHTCPAVLQSSGLYSLSSVVTVPSSSLGTQTYICNVNHKPSNTKVDKKVEPKSSDKTHTCGGHHHHHH
light: QFVLTQPNSVSTNLGSTVKLSCKRSTGNIGSNYVNWYQQHEGRSPTTMIYRDDKRPDGVPDRFSGSIDRSSNSALLTINNVQTEDEADYFCQSYSSGIVFGGGTKLTVLSQPKAAPSVTLFPPSSEELQANKATLVCLVSDFYPGAVTVAWKADGSPVKVGVETTKPSKQSNNKYAACSYLSLTPEQWKSHRSYSCRVTHEGSTVEKTVAPAESS

The subject of one test is primary human NK cells. Kind of test: LNP transfection of co-cultured human T cells and NK cells: NK cells. The conditions noted are these: Lipid 8 LNP, 2.5 ug/mL mRNA, 24 hours. In kind it is cell-based. On the procedure: CD3-depleted PBMCs were purified using magnetic-based CD3 positive selection and retaining of the negative fraction. 20 million CD3 depleted PBMCs were added to 1 well of a 6 well GREX plate in media containing 10 ng/mL IL-15 for 7 days. On day 7, each well was split in 2 and cells were cultured further in media containing 10 ng/mL IL-15 for an additional 7 days. On day 14, NK cells were concentrated to 1 million cells/mL in preparation for co-transfection with primary human T cells.
LNPs were prepared using the mixing process described in Example 6, the buffer exchange process described in Example 25. The LNPs were formulated using eGFP encoding mRNA (TriLink Biotechnologies, California, US), Lipid 8 as the ionizable lipid, and labeled with 0.01 mol % DiIC18(5)-DS (Invitrogen, Massachusetts, US). Fab-lipid conjugates generated from methods described in Example 4 while generation of Nb-conjugated differed in using 1:1:4 Nb:DSPE-SKPEG-maileimide:DSPE-2KPEG-OCH3 and a 50 kD UF membrane (Millipore Corp, Billerica, Mass. USA) for separation of Nb-conjugate from free Nb. Using methods similar to Example 12, conjugated Fabs and conjugated Nb were post-inserted at various densities (Table 41) into LNPs containing Lipid 8 and GFP mRNA with DiI dye. […]. […]
24 hours after LNP transfection, cell culture media was aspirated from T cell and NK cell co-cultures after centrifugation. […] Following acquisition by flow cytometry, T cells and NK cells were analyzed independently using FlowJo (flow cytometry analysis software). In either CD3+ cells (T cells) or CD56+ cells (NK cells), the frequency of GFP positive events relative to GFP negative events was calculated (FIG. 64A). Additionally, the overall fluorescence of GFP was quantified by assessment of mean fluorescence intensity (MFI, FIG. 64B). […] Together, these metrics enabled quantification of LNP transfection efficiency of all targeted LNPs tested in primary human T cell and NK cell co-cultures.
As for B1, the “transfection of NK cells in T/NK co-culture (% GFP, GFP MFI, DiI), in words” value is “highly specific transfection of NK cells”.

Consider B2, for which the “transfection of NK cells in T/NK co-culture (% GFP, GFP MFI, DiI), in words” value was “highly specific transfection of NK cells”.

Another test relates to human CD3 T cells. Kind of test: Transfection of human CD3 T cells (CD8 and CD4 subsets) with Fab/Nb-targeted LNPs. The note with it: targeted Lipid 8 LNP (Lipid 5 in Example 43), GFP mRNA approximately 2.5 μg/mL, approximately 24 hr. In kind it is cell-based. The procedure: LNPs were prepared using the mixing process described in Example 6, the buffer exchange process described below in Example 21. Using methods similar to Example 12, hSP34 and TRX2 Fab-lipid conjugates and a non-T cell specific anti-HER2 lipid-conjugate (Nellis D F, Ekstrom D L, Kirpotin D B, Zhu J, Andersson R, Broadt T L, Ouellette T F, Perkins S C, Roach J M, Drummond D C, Hong K, Marks J D, Park J W and Giardina S L (2005) Preclinical manufacture of an anti-HER2 scFv-PEG-DSPE, liposome-inserting conjugate. 1. Gram-scale production and purification. Biotechnol Prog 21:205-220) were post-inserted at various densities (SP34 0.25-17 g/mol; TRX2 0.25-9 g/mol; SP34+TRX2 0.25-9 g/mol each conjugate; anti-HER2 17 g/mol) into LNPs containing Lipid 8 and anti-CD20 targeting CART mRNA. Transfections were performed with human CD3 T cells at approximately 2.5 μg/mL mRNA for approximately 24 hr. For FACS analysis T cells were stained with M1 antibody (Sigma, F3040) that bind a N-terminus FLAG-tag variant sequence on the TTR-023 CAR (sequence provided below) in addition to staining for CD69 (Biolegend, 310930) and CD4 (Biolegend, 344648) to differentiate CD8 from CD4 cells.
LNPs were prepared using the mixing process described in Example 6, the buffer exchange process described in Example 21. Using methods similar to Example 12, hSP34, TRX2, and Ibalizumab Fab-lipid conjugates and a non-T cell specific anti-HER2 lipid-conjugate were post-inserted at various densities (specified in FIGS. 20A and 20B into LNPs containing Lipid 8 and Cy5/GFP mRNA. Transfections were performed with human CD3 T cells at approximately 2.5 μg/mL mRNA for approximately 24 hr and stained for CD69 (Biolegend, 310930) and CD4 (Biolegend, 344648) to differentiate CD8 from CD4 cells by FACS analysis.
LNPs were prepared using the mixing process described in Example 6, the buffer exchange process described in Example 21. Conjugates were generated using a method similar to that of Example 4 except 0.025, 0.1, 0.5 mM TCEP was used for hSP34 DS, 0.025, 0.2, 2 mM TCEP was used for hSP34-hlam NoDS (interchain disulfide knockout) for reduction prior to conjugation and the conjugation reactions were performed at 37 C for 2 hr. SDS-PAGE (FIGS. 65A, 65B) was performed using the manufacturers recommended conditions with 1 ug of protein (Thermo, 4-12% Bis-Tris MiniGel). RP-HPLC (FIGS. 65C, 65D) was performed using an Agilent 300 SB-C8 at 0.5 mL/min with a column temperature of 60° C., Mobile Phase A: Water with 0.1% TFA, Mobile Phase B: Acetonitrile with 0.1% TFA, Gradient % B: 0 min 5%, 1 min 5%, 6.5 min 95%, 8 min 95% injecting 10 ul with a target of 1-25 ug of protein. Using methods similar to Example 12, ant-CD3 hSP34 (with and without natural interchain disulfide, DS (with interchain disulfide) vs. NoDS (without interchain disulfide), see sequences below) PEG-lipid conjugated Fabs were post-inserted at various Fab densities (6, 12, 17 g Fab/mol total lipid) into LNPs containing Lipid 8 and Cy5/GFP mRNA. Transfections were performed with human CD3 T cells at approximately 2.5 μg/mL mRNA for approximately 24 hr. Levels of transfection of CD3 T cells was measured by flow cytometry.
LNPs were prepared using the mixing process described in Example 6, the buffer exchange process described in Example 21. Conjugates were generated using a method similar to that of Example 4 except 0.1 mM TCEP was used for reduction prior to conjugation and the conjugation reaction was performed at 37 C for 2 hr. […]
Turning to B3, the “% GFP transfection and GFP expression (MFI) of CD8 and CD4 T cells, in words” value (shortened to “% GFP transfection and GFP expression”) was 3.4K PEG mediated higher transfection and expression than the 5K PEG.

Take B4: the “% GFP transfection and GFP expression” value was “highly specific LNP transfection and protein translation of CD4+ T cells versus CD8+ T cells”.

On to B5, for which the “% GFP transfection and GFP expression” value was “slightly lower % transfection (FIG. 82A) and GFP expression levels (FIG. 82B) in the CD8 T cell subset relative to the anti-CD8 TRX2 NoDS Fab”.

In the case of B6, the “% GFP transfection and GFP expression” value is “can efficiently transfect both CD8 and CD4 T cell subsets”.
